Assay results as given in patent US20170182119A1 (Dana-Farber, published 2017).

T1: C-terminal MYC-NCOA4 (aa 235-614) (human, UniProt Q13772 235-614)
T1 construct: In vitro translated; also called C-terminal NCOA4; NCOA4 C-terminal fragment; not shown: N-terminal MYC tag (vector pT7CFE1-NMyc)
T1 sequence: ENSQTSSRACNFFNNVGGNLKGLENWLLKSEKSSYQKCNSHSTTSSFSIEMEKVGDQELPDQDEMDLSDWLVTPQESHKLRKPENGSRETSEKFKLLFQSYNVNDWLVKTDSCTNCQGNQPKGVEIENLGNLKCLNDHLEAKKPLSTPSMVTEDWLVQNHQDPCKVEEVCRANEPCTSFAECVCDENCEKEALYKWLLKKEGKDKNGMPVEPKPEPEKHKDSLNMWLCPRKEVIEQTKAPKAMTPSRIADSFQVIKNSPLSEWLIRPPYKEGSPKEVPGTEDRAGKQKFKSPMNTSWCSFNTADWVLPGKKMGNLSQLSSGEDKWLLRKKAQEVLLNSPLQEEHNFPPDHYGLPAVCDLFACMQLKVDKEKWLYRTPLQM

T2: MYC-NCOA4 full-length (human, UniProt Q13772 1-614)
T2 construct: not shown: N-terminal MYC tag (vector pT7CFE1-NMyc)
T2 sequence: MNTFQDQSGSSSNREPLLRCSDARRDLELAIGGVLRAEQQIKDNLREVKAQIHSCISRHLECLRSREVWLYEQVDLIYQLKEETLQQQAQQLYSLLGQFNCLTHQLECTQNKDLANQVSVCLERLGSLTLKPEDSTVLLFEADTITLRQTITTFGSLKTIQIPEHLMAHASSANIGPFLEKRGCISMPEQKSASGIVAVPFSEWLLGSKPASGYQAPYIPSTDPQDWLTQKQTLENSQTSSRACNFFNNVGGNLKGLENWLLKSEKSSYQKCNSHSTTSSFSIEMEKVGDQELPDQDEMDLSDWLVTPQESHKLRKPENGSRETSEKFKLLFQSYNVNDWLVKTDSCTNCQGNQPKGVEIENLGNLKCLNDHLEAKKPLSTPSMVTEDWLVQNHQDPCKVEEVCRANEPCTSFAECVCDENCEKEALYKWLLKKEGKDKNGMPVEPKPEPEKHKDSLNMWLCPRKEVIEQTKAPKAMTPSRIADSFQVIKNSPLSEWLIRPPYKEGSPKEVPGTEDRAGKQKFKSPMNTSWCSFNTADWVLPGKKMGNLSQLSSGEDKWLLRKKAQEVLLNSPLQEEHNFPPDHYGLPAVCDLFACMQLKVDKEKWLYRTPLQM

B1: N-terminal MYC-NCOA4 (aa 1-245) (other)
chain: MNTFQDQSGSSSNREPLLRCSDARRDLELAIGGVLRAEQQIKDNLREVKAQIHSCISRHLECLRSREVWLYEQVDLIYQLKEETLQQQAQQLYSLLGQFNCLTHQLECTQNKDLANQVSVCLERLGSLTLKPEDSTVLLFEADTITLRQTITTFGSLKTIQIPEHLMAHASSANIGPFLEKRGCISMPEQKSASGIVAVPFSEWLLGSKPASGYQAPYIPSTDPQDWLTQKQTLENSQTSSRACN
notes: In vitro translated; also called N-terminal NCOA4; NCOA4 N-terminal fragment; not shown: N-terminal MYC tag (vector pT7CFE1-NMyc)
B2: MYC-tagged NCOA4B (transcript variant, amino acids 1-238 and 555-614 of full-length NCOA4) (other)
chain: MNTFQDQSGSSSNREPLLRCSDARRDLELAIGGVLRAEQQIKDNLREVKAQIHSCISRHLECLRSREVWLYEQVDLIYQLKEETLQQQAQQLYSLLGQFNCLTHQLECTQNKDLANQVSVCLERLGSLTLKPEDSTVLLFEADTITLRQTITTFGSLKTIQIPEHLMAHASSANIGPFLEKRGCISMPEQKSASGIVAVPFSEWLLGSKPASGYQAPYIPSTDPQDWLTQKQTLENSQGEDKWLLRKKAQEVLLNSPLQEEHNFPPDHYGLPAVCDLFACMQLKVDKEKWLYRTPLQM
notes: in vitro translated; also called NCOAB; not shown: N-terminal MYC tag (vector pT7CFE1-NMyc)
B3: ferritin purified from horse spleen (mixture of FTH1 and FTL subunits) (other)
chain 1: TTAFPSQVRQNYHQDSEAAINRQINLELHASYVYLSMSFYFDRDDVALKNFAKYFLHQSHEEREHAEKLMKLQNQRGGRIFLQDIKKPDQDDWENGLKAMECALHLEKNVNESLLELHKLATDKNDPHLCDFLETHYLNEQVKAIKELGDHVTNLRRMGAPESGMAEYLFDKHTLGECDES
chain 2: SSQIRQNYSTEVEAAVNRLVNLYLRASYTYLSLGFYFDRDDVALEGVCHFFRELAEEKREGAERLLKMQNQRGGRALFQDLQKPSQDEWGTTLDAMKAAIVLEKSLNQALLDLHALGSAQADPHLCDFLESHFLDEEVKLIKKMGDHLTNIQRLVGSQAGLGEYLFERLTLKHD
notes: Bought from Sigma (A3641 in the MYC assays, F4503 in the GST pull-downs); detected with anti-FTH1 antibody; also called Apoferritin; apo-ferritin purified from equine spleen

Tests used:
[1] = biological target: B3; test: anti-MYC immunoprecipitation of in vitro translated MYC-NCOA4 with horse spleen ferritin, FTH1 immunoblot
Protocol: (§1) An anti-MYC antibody immunoprecipitation was performed followed by immunoblotting with the indicated antibodies.
(§2) To probe the interaction between ferritin and NCOA4, initial binding assays using MYC-tagged NCOA4 full-length and truncation constructs produced using an in vitro translation (“IVT”) system were conducted. […] Apoferritin (Sigma, A3641-100 mg) was added in a pull-down assay using anti-c-Myc Agarose Affinity Gel antibody produced in rabbit (Sigma, A7470-1 ML). Affinity purification reactions were washed thoroughly with 150 mM NaCl, 20 mM Tris (pH 7.4), and 2 mM dithiothreitol.

[2] = biological target: B3; test: anti-MYC immunoprecipitation of in vitro translated MYC-NCOA4B with horse spleen ferritin, FTH1 immunoblot
Protocol: as §1, §2

[3] = biological target: T1, C-terminal MYC-NCOA4 (aa 235-614); test: anti-MYC immunoprecipitation of in vitro translated MYC-NCOA4 with horse spleen ferritin, immunoblot
Protocol: as §1, §2

MYC-NCOA4 full-length = biological target: T2, MYC-NCOA4 full-length; test: as above
Protocol: as §1, §2

Binder: B1
binding result [1]: no binding

Binder: B2
binding result [2]: no binding

Binder: B3
binding result [3]: binds
binding result (MYC-NCOA4 full-length): binds
